# Experiment: soluble on expression in E. coli; label from the status in PepcDB or PDB records
row,Sequence,soluble on expression in E. coli
1,GPGSMTHNRSGAVRRKVVQHDFYDSADQVGGVVLLNNPTNGSWEYDEYLRLLTTKRYSRIPSWEAHSTAQCYFVCADGVYPKLQSYVKERQVSHPHLRLFQFFPLCDAVIGDMDSYVTSYEKDGCERPSSTPEGGYGTVDDIPVEVLDTIHHRCRSAAALFREVDGSVPDTPLNGWKMLHEEHSHPLLRPLWLHIQCQITTDFKKALTLLKRLRKRYPDENAVVLPPVLRSPGAARILETGGGVVDQRNCGCDNDPIQERELCVAASQVEALLLPTVVAVGAFGGRFDHEVGAISTMLSESHDAHIVLINLFNTVFACQGGGWTQIVRQPEYEDKTCGLVNYGRMTECETSGLLWNVVKGRGRPSVTNDFVFDFGAFISVCNIVRREVITVDLRCLLTSVGESPADATTATGASDCEAQRGRGPPVVFSILRRQKKEGG,not soluble
2,GPGSMTQPSAVVAIGGGLRLLAQPAPTPTADGSSQALTDVFLSEYCAPLQRSSHHLHTHVPRYTVPTPASRRYTPRAGDPVLAIIARKVSQHYYYCYIGGSALAYMDALAFDGATKVSRPRLVEGDVVYCYVKPREGSSYVDGVHRSVASEVFDTTGEVEVSCTAAEVGLPPKDWTSGEAVFGPLQGGRVLHLPLVYVRRLLTPMGSSPEKASAQQRKRDHTEGEGSDGDEVPASYLLQLLGRRVPFEVAVGLNGLVWVRGLSSEADATAAARRTVAVSSCISEAQYDVTRAEMEARVEVYFPS,not soluble
3,GPGSMTSEEAVECTDALELVRCPSSNARVVPNRFDEEYIRGRLQEAEKIFEKAKTDVSRGLSKCEDWLGACEAFNEAGGLFASCGHPAEAARAFFHASIITRAFKDEEETTTALSLAVENMQLVEPLLAVNLMQKISETLKKGGFFFQAARCKRDSALLLEDRLGEPERAIELYREAIELYGNRSFMSSFSRGCMERITTLTVELKKYTEASKLFVEETAYAPRGRPKTRQFFLSLLCMLAEGFGDNDRYFDSLYYARKRFHALQEEERDFQHGKENRLVRKIIEANDNGSLTAFDTAVYEYRSSSTYVPDAVFENLIERCRKNLYEHLEQYI,soluble
4,GPGSMVEHTGLKYQFFIRAASVDWDARDRESMAAGLCPLYQLLHCDVEKLQFVVYCFGEGEAYMFEKAIQTVTKYVDEEKCIMAVRSLRQRETKGHIIYDVAKKETQPAQFFFLLSYAWGMIAVSFPKVTNYDKWEKQKGAARIIMNCPAEMDVKAMCAWMKRGLDPDEQTKYWKMVETHMEKVGPIPRYIFDANKFLAHFAATEDALDGINPRDGESHFTHGGVRLWYSEDPSHKLVRVVRTRGEVGAEVFLNAPISVCLGRRIPLYFWKRDE,not soluble
5,GPGSMVHSYGYKSGTRHLFAKKFRKHGAPSVSTILTNIKVGDYVDVVADSAVREGMPHKYYHGRTGIVWNVTPRGVGVIINKPVRTRTLRKRICVRFEHVRKSRCQEAFKAKEHQFQAYLAAKKAGKALPPLQKSSRLGGIVRPKTVEVLARRVADYEAMVPY,not soluble
6,GPGSMVSRDSRYIHRRWYLEDATLTIQQPKLELLVDFDDPSSFAFPANLPPTLGMRRAAAVATATGGLSGVMGLGSEGNLLADWREIGIPPFTEE,not soluble
7,GPGSMYQLWGGSPFKPHKQNPSIMIDKSGTEVRLIGESRDVLQTLATNPKWANTYLAISSTCDVPSWARELLGTFEFTDYAGKTVPMHSLFSDRIEIYKANKAKQHEMILQKVNKVDPSVSEYAQMLFFDNQTDNVRHVSGIGVTSCYCPSGMTKGTFEKGLEMWRRAAAVEDVRYDRVVECRA,not soluble
8,GPGSMYTHTRMHTTSASATLLSLPLCVRASPTNTPAAQLSALSDHLGLRVIKTNNLHTSSRSNMPAKAAAKPVKPAAKAAPKPANKAPAPKAAAAKPVAKAAPKAAAPAARPASGSSNGVYVKNWGTGSVADAANVFSAAGKVVKVQLRRQRYAIVFFENSAAVKKAIDLFNEKEVLGKTVLVVPAKTSPKPDAHENSSCVFVSPIFRPSTTKAQVMELFAGVKVQRLRMYRQNFAYAYLDSPAAAKKFVEEKNGTEFRGHTLRVALSARSLEKLRARQEAANVVIAAHRHYKTHERQ,not soluble
9,GPGSNYTFSMRATLDDPDVQNGITQGDRQQIQDAVNAASSWLEKNREATKEEYMEQTKLIEGIAHPILSEFYKKRVMEAPPSAGPKDGAPSDEVPHAEDVD,soluble

# — the DeepSol protein solubility set
